± gives the standard deviation.
Assay: protein stability index of a GFP-peptide fusion (GPS, HEK-293T) (PSI 1-6); higher = more stable
[1] = treatment: DMSO, c terminus: a fixed tail appended
[2] = treatment: MLN4924 1 uM, 8 h, c terminus: a fixed tail appended
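Further: 24-mer peptide tiles fused after GFP, lentivirally expressed, FACS-sorted into six equal bins by GFP/DsRed ratio, decoded by Illumina sequencing, PSI is the read-weighted mean bin number.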

Sequence	protein stability index [1]	protein stability index [2]	protein stability index (treatment: DMSO, c terminus: native)	protein stability index (treatment: MLN4924 1 uM, 8 h, c terminus: native)
DETGITVASLERFSTYTSDKDENK [ZC3H15]	5.14 ± 0.3	5.29 ± 0.087		
DVIGDEICCWSFYGQGRKIAEVCC [KCTD10]	2.42 ± 0.92	2.33 ± 0.54		
FEMLSGFPPFFDDNPFGIYQKILA [PRKX]	2.47 ± 0.45	2.29 ± 0.3		
RDGALLGCSLTADGLPLHFFIQTV [MYORG]	2.35 ± 0.31	2.36 ± 0.52		
ARARERERLAHSRAAAAAAVAAAT [KCNA4]	4.27 ± 0.24	4.38 ± 0.13		
TEEEDRIICEAHKVLGNRWAEIAK [MYBL2]	3.85 ± 0.1	3.92 ± 0.46		
EEEQDILQRLRENAAHLGDKRRDL [TRIM39]	5.06 ± 0.26	4.97 ± 0.059		
GVDWEHIRERPAAIPIEIKSIDDT [STK38L]	4.68 ± 0.25	4.99 ± 0.27		
SLGKTNVKDDELDAMLKEASGPIN [MYL5]	5.14 ± 0.26	5.35 ± 0.16		
LHKIYLCQSGYFSSMFSGSWKESS [GMCL1]	2.26 ± 0.82	2.18 ± 0.37		
KIGYHLLYYLRASKAAAGKMNLYE [INTS3]	2.3 ± 0.49	2.25 ± 0.23		
LIILWKNGERESGLRSLRLFQKLE [WDR41]	2.15 ± 0.26	2.5 ± 0.49		
DLLCKTSHLSDTGISALVEIPKNC [WDR41]	2.8 ± 0.23	2.78 ± 0.34		
TFDIDPMVVTDCIQVDPPERPPPP [MCOLN1]	4.69 ± 0.29	4.89 ± 0.35		
AAIKVNDSVPFHLGWNSTERSLRL [MYORG]	2.61 ± 0.16	2.81 ± 0.38		
VVRGGEVVHRSDEQQHYFNTPFQL [PPTC7]	3.26 ± 0.47	3.43 ± 0.24		
STAKKEDINLSVRKLLNRHNIVFG [TRIP13]	2.5 ± 0.27	2.61 ± 0.24		
GIFLFCVCVIAIGVVQALIVGYAF [TMEM175]	2.6 ± 0.56	2.33 ± 0.56		
ILTRSWEEVSTLNAQIPELKSDLE [CD207]	3.56 ± 0.28	3.78 ± 0.16		
QIMQGLEHPFLVNLWYSFQDEEDM [STK32A]	2.19 ± 0.37	2.37 ± 0.36		
WDLVSASVVCRELGFGSAKEAVTG [LOXL2]	2.58 ± 0.31	2.61 ± 0.089		
NFCKEQAARISNKGKFSTDTKGKP [ZC2HC1A]	3.78 ± 0.2	4.27 ± 0.31		
QDSTRTVGERLQDTHSWKSELQRE [TEKT4]	4.88 ± 0.36	4.96 ± 0.27		

Sequence	protein stability index [1]	protein stability index [2]	protein stability index (treatment: DMSO, c terminus: native)	protein stability index (treatment: MLN4924 1 uM, 8 h, c terminus: native)
KPLTLEALGHLGNDDSADYQHFLQ [DLC1]	4.23 ± 0.12	4.33 ± 0.15		
LPGGTTGLQLPSTLPVSGNLLDVY [TFE3]	3.24 ± 0.31	3.23 ± 0.17		
KGISSHSRSSLMPLRNDVDKRGET [SLC2A12]	5 ± 0.39	5.06 ± 0.22		
AEDYLTWKEWGFTGVQEVLSALLR [SPAG8]	2.28 ± 0.33	2.19 ± 0.4		
SAGNAPLNEEINIASSDSEVEIVG [C18orf25]	5.27 ± 0.31	5.46 ± 0.19		
VSEDFNKMNFIKTYPAHQNRVSAI [WDFY1]	2.9 ± 0.21	3.03 ± 0.46		
YNIKLEGKVPMHKLFLEMLEAKV [ESRRG]			2.83 ± 1.5	2.43 ± 1
RPCVPPSCHGYTLPGACNIPANVS [KRT33B]	2.79 ± 0.24	2.74 ± 0.17		
RLRKHQHVGDFARDLAARWKKLVL [ELOA2]	2.23 ± 0.61	2.54 ± 0.9		
GAQFEGEKGRALQIRDWRGGRLEN [ZSWIM9]	4.24 ± 0.23	3.87 ± 0.57		
QHGFFRRTADEATNTGPAGSSAST [DYRK1B]	5.02 ± 0.19	4.93 ± 0.16		
KLTREVLSLFVQKLGNLMSLDISG [ZER1]	2.86 ± 0.81	2.56 ± 0.46		
FVKDPQGRIIAVFKPKNEEPYGHL [PI4K2A]	2.32 ± 0.26	2.9 ± 0.23		
NHLNPEVKKSCWTEEEDRIICEAH [MYBL2]	4.72 ± 0.1	4.81 ± 0.2		
TNEKMLKAVFGKHGPISEVLLIKD [RBMY1A1]	2.82 ± 0.24	2.96 ± 0.15		
TNTLTRIAENGVSERDSEAAKQNH [EHMT1]	5.41 ± 0.18	5.26 ± 0.29		
ANFIEKVRFLEQQNAALRGELSQA [PRPH]	3.39 ± 0.12	3.36 ± 0.39		
YQSYFKTIEELQQKILCAKAENAR [KRT34]	2.46 ± 0.33	2.86 ± 0.5		
STTTTTHITKTVKGGISETRIEKR [EPB41L3]	4.86 ± 0.2	5.01 ± 0.21		
ETLKHIKATEPTETVQTWIELLTG [GOLPH3L]	2.59 ± 0.2	2.86 ± 0.22		
EVALDKGCSQFRLAVLDWNQRAMD [SAT2]	2.94 ± 0.48	2.95 ± 0.28		
VSASGKEMDWAQMACHRCLVYLGD [SMG5]	2.1 ± 0.36	2.21 ± 0.52		

Reference: the supplement of paper PMC10567573
